Consider 34 sequences from the NTF2 design screens of Basanta et al. (2020).

This series is described as follows: protease stability score; higher = more stable; yeast display proteolysis, trypsin and chymotrypsin.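 Further: relative to predicted unfolded state with 0 unfolded-like and 1 meaning tenfold more protease.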
“HEDYEDLDKLREHLLTAMKTGDWEVMYRNFDPHVRLLYNGKDTHGREDLRRLVEEMRTRDVRIIITREEIQGNKVFMHGTLEVDGNWNGVDRHIHREVTHIMVKIDGRWIVTVERIR” displayed a protease stability score of 0.899. “SEEEHTSEEALRAFVFLELTGDEKSLIELLDPRTRIHAENHEVVGRERATEEWRRWLEFYKNIRVHDVEIEEIHLIDGRIKLIMRRDGVINGVKRETHIRMITNKVNGRWLVHSIIIR” showed a protease stability score of 1.37.

With “SEEKKESDKFFEEWVRSAQTGDEDRVREMLDPNARVEIGDKTYVGRELFLRIMVEIRIKDIILKDIRIQGDKLRNDGELLITVDGKEIRVETHIIAEKVDGRWVLSRFVWH”, the protease stability score worked out at 1.35.

“SEEEEMLHHLSERMTRALRTGDWKTLFELLDPNVRYEQGDKELHGREEMVKHIRHAMERVKNIRIEFTHIDTRLIDGRIHVHIDGRDEFNGVRFKKHIIVHIDKIDGKWFTDNFRLIYE” yielded a protease stability score of 1.15.

“DEDTKLSKDAIRTFLESMVTGDEHILHRLADPNVKYSQGDKEYHGWEYAREFWSRVKNIRFHLKHYEVYGNKVHIEGELHVDGRHFEVHIVIIKFDGRWKIESHEIK” came in with a protease stability score of 1.19. Under “DEDEENTRKLLESYIRVFRTGDEDRMIELADPDVRLKIDGVTRHGREDWMRHWLNLVERMGANVSELTRFDVFDGQVHSHHKLVQGDKERKMHLILIKVDGRWFLHEISEQ” stands 0.157; under “DEERHDAEEASREIMRSYETGDETEYLNLLDPHARMTVGDKEFHGREDILRWWHELNEKLGVDRIHLHLEHIRVINGVVESHVRLNVNGREHRVELLVYKVNGRWLIREMHFR”, 1.68. Under “DHIEEELIRWLELLRNALETGDEELVVKLVDPRYRLIIGDKHHHGMEEWSKILKEESERVKNARIELHLRHLRLFNGQADMEVENVVRYNGVTIIIDVRIHLLKVNGRWKEREVREG” stands 1.33.

“SEEKEMVLHLAELLIELEFTGNWEKLFELADPNVLSRINGRELHGMEKHRKHWEEIRIHRVHIEKVHIETIGDKAKLDIHGRLDGEVNGVRDISESVIHIVSRKYDGRWIVKSIEIRVH” showed a protease stability score of 1.22. The result for “SEVQELAERMFRFLLKVFETGNEDRLTELMDPNTLQIIGDKRNHGRDLYLRTVFEKVEHARMRIEFKEVHVINGQINVDGILWLEFDGRRIFFRVHLELTVVNGVLKEEHVTIH” reads 1.56; that for “SEWEHNLQRFIEELIEDARTGNEENIRENMDPDVRAEVDGQELHGREAQRFVRERIDVIKHNHLREIRFQGDFIHVRGELRGEVNGKEVHTDTHFVIWKFNGRWIIRHVLIR”, 1.03.

Consider “DERERELKQALDLFKDIIKTGDEEALTRLIDPNAKMRVNGQDIHGWHHFILMMIRIYLHMGIKHIIDHRLHIQGDYLHLDTEVHVDGRSIRYHIVLFKFDGRWHLESSSSI”, for which the protease stability score is 1.6. In the case of “DEDERFAEIAIRLMIEIIKTGDEREEDKLIDPHARLIVGDWLIHGRDELVRYLTHLRIEHLEIKTWEVVNGRVKLTTRIHLRINGRHHETDQVNIIEKVNGRWYMKLIEFK”, the protease stability score was found to be 1.19. Sequence “DEDEDESRRFHEEFIKRILTGDEDEFVKLLDPDVRIEIGDKKSIGRERALERFHRMLTEIRVHHVELRERTIQGDKVFLNMEVDLEFNGRRDRTKFHMIIWKVDGQWTLSEMRVK” returned a protease stability score of 2.48. Consider “SDEDEDARRVMELLLELFETGNWRELSKLADPHVRMEIDGQDFHGRELFEHFVRELIEKFKGAKLELRVHTLDLINGVMYSDIHIHLNVNGRKLDIRSHFRILKIDGRWLTRSFHFK”, for which the protease stability score is 1.25.

For “SEDRESAKWFVEMELELFLTGDFEKRLHLADPNAKIRIEINGRKHSTHGMREFLEHLLRLGIDVSHVDHIQVENYNGKLEMNLNLDIRIDGQRRHVEIHIIVDKFDGRWVLRELKVNIR”, the protease stability score amounted to 0.642. Under “DEDEKASKEFMRLVMEVLKTGDWKSLVDLADPHARLHINGREIHGREKISEILLHELDLLGFKHMEVRVHHVEVQGEKMKFDVRHSLDVNGVERHETSMIISVKFDGQWWLKEEIVK” stands -0.07; under “SEEKEMLETWFLLLVESFETGDEELFEELADPRTRLVINGRHQHGREDINEWLHRVWHKLGAKHVSLDLHDMRVINGRIHSHFTLLIRIGDYTERRQVDLHMIIINGKVKHVEIRFR”, 1.06; under “DEERERREDETRLLLEILITGDEDRFRQLADPHMKLHIGDKDFIGREVAVKFLRDLWREFGIKHILFEDSTIVGDKLEHRMHLEVNGKRRRMELENVIIDGRVHSMHIRIH”, 1.39. Sequence “DEEEKLSQHMLKEWFEWTITGDEDTLAKMADPNVRVHIGDYHLHGRESMLKWLHDFIRDLGVERIDFHLRDRTVQGNKARLHVVENVNGKSTETEVIIDVIDGRMKLVEIRIR” displayed a protease stability score of 0.198. On to “DERDELVEIVFRLYLRLLTTGDEQEWHHLADPDTRLHIGDKDFHGRENVNKHRRDNLERVKGIKLRDVKITQVHLIDGVLHIDIRLDVEYDGRRTELKVRVISEKVDGKWFIKSIIIE”, for which the protease stability score came to 1.44. “DREEEEVRRARKLWVDWAETGDEESIFKNADPRTRVDINGKILHGMEIYKKESEKLGIDNIEFRVDDVRVFDGRLEMDGELIVNGRSIRVHIYSRKIDGRWVLTSINFI” registered a protease stability score of 0.872. Consider “DDKDEKSKKWAEMFIHLIETGDEERIRELLDPDVRVEIGDKEIHGRERWLEWERRMRDKYKNLRFRIEHHHIQGDKVHIRTEREIGDKSLDIRIEIIIYNGRAKEFHIDIR”, for which the protease stability score amounted to 2.87. Under “DEKEHELTRMIRMIETLLRTGDFEELEKLMDPDVRLDIDGKHLVGRHDLREFFLELGVKHTDTKEIHVIGDKAFLHTEIHVDGRTTKVIIIMHKINGRWIITSTHIRHH” stands 1.47; under “DEEKKDIKHWLEKWITDTRTGDEEEILKMLDPNVRTEQGEFELHGRDALKHYIDRFDHIHEVDLEVKHVTEQGDKLHIKGTLRMDGIVDGVRRTFYFRTILIVRKIDGRWAVSRVILL”, 2.32; under “DESEKLEELIHERLRHLIETGDEDKLAKMADPNVRNRVGDFVHHGRERSHELLKWIFDHLGIDHLHIKHSSVIDGVVHFEIELRINGRTIRLHDHWFFINGRLDEISIHWE”, 0.93. In the case of “TEEEELLTRLARQILRWLLTGDEDKHSRMLDPRDRSVIGDKESVGMEESVKNWRIWLEEMRLKHVQLRDVRIVDGVVHLDIHLFGHINGVHIDRESRMDVYIVNGRIHRIRIIEH”, the protease stability score came to 1.3. The result for “DDEEKEVKILTEIWWKSVRTGDEEFWDRLADPHTRLEILINGRTHEFHGMDEYNRILHHLRIEDRRTRSINNIDGKAQIDGFLVFRINGRSFETKVEVNISVVNGKVKHHKIIIE” reads 1.3; that for “DEEEKRERKMAEIWMKSLLTGDEDTLSRLADPNVRNVLIIDGRELNLHGRELMHESLRHLRIEHIRIDEYSIVNGVFHANTTVHGVVGDKRTTVETRIHLWIFDGKFHTIIIIIS”, 1.03.

The sequence “EEAEQESKNFSEVVHRSLETGDEDNLMNNADPHVRSRIHVGDKRITSHGREVMELILERFKHARVVPTDIEVINGVAIIHMTMEYGDKELRIHLIFFKIDGKWILTHIIIRVD” yielded a protease stability score of 0.056. “SEDEEYVEHMIRLVIRSLWTGDEHLLHRLIDPHARAEVNGQEFHGREEVLDILMRIRDELGVDHIELKDFELQGDKLILYSQNNVGDKHFHIIYELTKINGRWRIHRVFIELR” had a protease stability score of 1.7. The result for “DETTEKNERYIERLHHYLETGNEEELLHLFDPNTKFVQGDKEIIGREEVRHWEEEKRRKMGIKHWDFEFRRVRIIGEKLIIHGKEIINFENHRLERTVEIHLLLIDGRVKEVVYHVN” reads 1.2; that for “SKREDKWKHHVEVLIRLWQTGDEDTLKELFDPNVLLLVIYNGRNIHNHGRELAMHWLRYLLEHLGIDHYHIESSSVIGDKVEIKSRVYIGDKTYELDLEIRIIDGRLKSLNVNIE”, 0.8. “DRDEQMLRTYLHRMYESIRTGDEDSFKRLFDPNTRLHFENHHEHGWELLLRLMLRYANQADHFKLEIEDVTVQGDKAILRVHITVHVDGRDVSRSTVLYTTKVDGQWHFETVREK”: the protease stability score came to 1.48.
